experiment: yeast display, Sf9 membrane polyspecificity reagent, FACS + sequencing; frameworks hold sequencing errors
Method in brief: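 Nanobodies from a synthetic yeast display library (Saccharomyces cerevisiae BJ5465), induced 36–48 hours with galactose, were stained 1 hour at 4 °C with 10% biotinylated, detergent-solubilized Sf9 membrane reagent, enriched on streptavidin microbeads, then FACS-sorted. Anti-HA (expression) and streptavidin (reagent binding) fluorescence set low and high (top ~1%) gates. Polyreactivity labels come from the gate of origin. Genes were colony-PCR amplified, MiSeq 2 × 250 sequenced and filtered by CDR length.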

Sequence | polyreactivity (PSR sort gate)
QVQLVESGGGLVQAGGSLRLSCAASGGIFSYYAMGWSRQSPGKEREFVAAIDWGGGSTYYADSVKGRFTISRDNAKNTLNLQMNSLKPEDTAVYYCAAEIYPIRWDDYDYWGQGTQVTVSS | low polyreactivity
QVQLVESGGGLVQAGGSLRLSCAASGFTFAWYTMGWYRQAPGKERELVAGIDWSGGSTYYADSVKGRFTISRDNAKNTVYLQMNSLKPEDTAVYYCNAAGLYYVYPGYDYWGQGTQVTVSS | high polyreactivity
QVQLVESGGGLVQAGGSLRLSCAASGSTFVPYAMGWYRQAPGKERELVARISRRGGSSTYYADSVKGRFTISRDNAKNTVYLQMNSLKPEDTAVYYCNKGHITFASVSSGPSPGGYWGQGTQVTVSS | low polyreactivity
QVQLVESGGGLVQAGGSLRLSCAASGSIFSRYAMGWYRQAPGKERELVAAINGRGSRTYYADSVKGRFTISRDNAKNTVYLQMNSLKPEDTAVYYCAAGRSRLYGPRYFIYKYNYWGQGTQVTVSS | high polyreactivity
QVQLVESGGGLVQAGGSLRLSCAASGSILAIYAMGWYRQAPGKERELVAAITWSGDSTYYADSVKGRFTISRDNAKNTVYLQMNSLKPEDTAVYYCAAGPGYWYEHEYWGQGTQVTVSS | low polyreactivity
QVQLVESGVGLVQAGGSLRLSCAASGRTLSKNAMGWYRQAPWKERELVATMSSVGRTNYADSVKGRFTISRDNAKNTVYLQMNSLKPEDTAVYYCAARRFRGSYYWGQGTQVTVSS | high polyreactivity
QVQLVESGGGLVQAGGSLRLSCAASGFIFSYYAMGWYRQAPGKERELVAAITVRGGSTYYADSVKGRFTISRDNAKNTVYLQRNCLKPEDTAVYYCNTVHGLWRRYNYWGQGTQVTVSS | high polyreactivity
QDQHGDSGGGLVQAGGSLRLSCSASGFTITYNTMGWYRQAPGKERELVATITAGDGSTYYADSVKGRFTISRDNAKNTVYFQMNSLKPEDTAVYYCAADAYYYYAGGHYYWGQGTQVTVSS | low polyreactivity
QVQLVESGGGLVQAGGSLRLSCAASGIIFWRYAMGWYRQAPGKERELVASISWSGGSTSYADSVKGRFTISRDNAKNTVYLQMNSLKPEDTAVYYCAAVFYYRRRYYYWGQGTQVTVSS | high polyreactivity
QVHLVESGGGLVQAGGSLRLSCAASGSIFYTNAMGWYSQAPGKERELVAAISYSGGRTYYADSVKGRFTISRDNAKNTVYIQMNSLKPEDTAVFYCNTVLRGGSTEAFDYWGQGTKVTVSS | high polyreactivity
QVQLVESGGGLVQAGGSLRLSCAASGITFTSYAMGWYRQATGKERELVAAITSSGSSTYYADSVKGRFTISRDNAKNTVYLQMNSLKPEDTAVYYCAAKHVGWYVQEEDYWGQGTQVTVSS | low polyreactivity
QVQLVESGGCLVQAGGRLRLSCAASGFTFGYYAMGWYIQAPGKERELVAAIDWSGGTTYYADSVKGRFTISRDNAKNTVYLQMNSLKPEDTAVYYCAADVVEEDDLEFYYWGQGTQVTVSS | high polyreactivity
QVQHVESGGGLVQAGGSLRLSCAASGITFFYYAMGWYRQAPGKERELVAAISTSGGRTYYADSVKGRFTISRDNAKNTVYLQMNSLKPEDTAVYYCADQSGWLRYYYWGQGTQVTVSS | high polyreactivity
QVQLVESGGGLVQAGGSLRLSCAASGRIFQGFAMGGYRQAPGKERELVAAISSGGRTYYADSVKGRFTISRDNAKNTVYLQMNSLKPEDTAVYYCAARSPKANGLQRFDYWGQGSQVTVSS | high polyreactivity
QVQLVESGGGLDQAGGSLRLTCAASGGTFVSNAMRWSRQAPGKERELVAAISSSTGSTYYADSVKGRFTISRDNAKKTVYLQMISLKPEDTAVYYCAADSWWDYDSWGQGPQVTVSS | low polyreactivity
QVQLVESGGGLVQAGGSLRLSCAASGSIFGSNAMGWYRQAPGKERELVAAITSRGGSTYYADSVKGRFTISRDNAKNTVYLQMNSLKPEDTAVYYCAADYQSVGGAEYDYWGQGTQVTVSS | high polyreactivity
QVQLVESGGGLVQAGGSLRLNCAASGFTFYTYAMGWYRQAPGKERELVAAITSGGGTYYADSVKGRFTISRDNAKYSVYLQMNSLKPEDTAVYYCNRASRRGYYYPYNYWGQGTQVTVSS | high polyreactivity
QVQLVESGGGLVQAGGSLRLSCAASGSTFPVNAMGWYRQAPGKERELVAAISSTGTSTYYADSVKGRFTISRDNAKNTVYLQMNSLKPEDTAGYYCAAETWVWGYVLYDYWGQGTQVTVSS | high polyreactivity
QVQLVESGGGLVQAGGSLRLSCAASGFTFPYYAMGLYRQAPGKERELVATISSGSSTNYADSVKGRFTISRDNAKNTVYLQMNSLKPEDTAVYYCAAVRSGYSGTDGQYSKYGYWGQGTQVTVSS | high polyreactivity
QVQLVESGGGLVQARGSLRLSCAASGSTFPYYAMGWYRQAPGKARELVAAITSSTGRTYYADSVKGRFTISRDNAKNTVYLQMNSLKPEDTAVYYSNAEVYSDPYNDHDYWGQGTQVTVSS | low polyreactivity
QVQLVESGGGLVQAGGSLRLSCAASGSTFTSNAMGWYRQAPGKERELVASISWSGGRTYYADSVKGRFTISRDNAKNTVYLQMNSLKPEDTAVYYCAAASYQSRYWNYYWGQGTQVTVSS | high polyreactivity

Sequence | polyreactivity (PSR sort gate)
QVQLVESGGGLVQAGGSLRLSCAASGRIFQDYAMGWYRQAPGKERELVAAITWSGGRTYYADSVKGRFTISRDNAKNTVYLQMNSLKPEDTAVYYCNRLTQSRLYYGPREYYYWGQGTQVTVSS | high polyreactivity
QVQLLESGGGLVQAGGSLRLSCAASGRILTGYAMGWYRQAPGKERELFSSINWRGGSTYYADSVKGRFTISRDNAKNTVYLQMISLIPEDTAVYYCAARVLVTGTYYTIYDYWGQCTQVTVSS | high polyreactivity
QVQLVESGGGLVQAGGSLRLSCAASGSTFWFYAMGWYRQAPGKERELVAAISSSGTNTYYADSVKGRFTISRDNAKNTVYLQMNSLKPEDTAVCYCAAQYRGSYRTTYDYWGQCTQVTVSS | low polyreactivity
QVQLVESGGGLVQAGGSLRLSCAASGSTFVRNDMGWYRQAPGKERELVAAINGDGRTYYADSVKGRFTISRDNAKNTVYLQMNSLKPEDTAVYYCAADWKSSRSYSYEMDYWGQGTQVTVSS | low polyreactivity
QVQLVDSGGGLVQAGGSLRLSCAASGSTFVPNAMGWYRQAPGKERELVASITSDGGTYYADSVKGRFTISRDNAKNTVYLQMNSLKPEDTAVYYCAADDNGVWVISYWWFDYWGQGTQVTVSS | high polyreactivity
QVQLVESGGGLVQAGGSLRLSCAASGSIMSYYAMGWYRQAPGQVREFVAAISSGGGTYYADSVKGRFTISRDNAKNTVYLQMNSLNAEDTAVFYCNADHASSIQFEYWGQGTQVTVSS | low polyreactivity
QVQLVESGGGLVQAGGSLRLSCAASGFTFVGNAMGWYRQAPGKERELVATITSGGNTKYADSVKGRFTISRDNAKNTVYLQMNSLKPEDTAVYYCAAAKYNYRRFNYWGQGTQVTVSS | low polyreactivity
QVQLVESGGGLVQAGGSLRLSLLPPDSPSTTMLWDGIDRRLGKKGSWLPVFLPSGGTTYADSVKGRFTISRDNAKNTVYLQMNSLKPEDTAVYYCAASYYRTRWSWMYYWGQGTQVTLSS | low polyreactivity
QVQLQESGDGLVQAVGSLRLSCAASGYISGYYYMGWYRQAPGKERELVAGIDAFGSSTNYADCVKGRLTISRDNAKNTVYLQMNSPKPEDTAVYYCAAEYDDWDYHWYWGQGTQVTVSS | low polyreactivity
QVQLVESGGGLVQAGGSLRLSCAASGNILRSYAMGWYRQAPGKERELVAAISADGSGTYYADSVKGRFTISRDNAKNTVYLQMNSLKPEDTAVYYCAAERYFWWYYDPENYWGQGTQVTVSS | high polyreactivity
QVQLVESGGGLVQAGGSLRLSCAASGSTFTVNTMGWYRQAPGKERELVAAISFGGGPTYYADSVKGRFTISRDNAKNTVYLQMNSLKPEDTAVYSCAARGSLWNARKYYYWGQGTQVTVSS | high polyreactivity
QVQLVESGGGLVQAGGSLRLSCADSGRILPFYAMGWYRQAPGKERELVADISLSGGDTYYADSVKGRFTISRDNAKNTVYLQMNSLKPEDTAVYYCAKDRYQWLWSPEYDYWGQGTQVTVSS | low polyreactivity
QVQLVESGGGLVQAGGSLRLSCAASGRTFIKYAMGWYRPAPGKERALVAAISRNGGSTNYADSVKGRFTISRDNAKNTVDLQMNSLKPEDTAVYYCAAVGTVSSTVGYNYWGQGTQVTVSS | high polyreactivity
QDQPVESGGGLVQAGGRLRLSCAASGIICSGYAMGWYRQAAGKERELVAAISNDGTRTYYADSVKGRFTISRDNAKNTVYLQMNSLKPEDTAVYYCAAYSRLNVLGYDYWGQGTQVTVSS | high polyreactivity
QVQLVESGGGLVQAGGSLRLSCAASGLILGINAMGWYRQAPGKERELVAAISSSGGRTSYADSVKGRFTISRDNAKNTVYLQMNILKPEDTAVYYCAKRRTTYSHYDYWGQGTQVSVSS | low polyreactivity
QVQLVESGGGLVQAGGSLRLSCAASGLTFVYYAMGWYRQAPGKERELVATISWDGGSTYYADSVKGRFTISRDNAKNTVYLQLNRLKPEDTAVYYCNKYVFDRYIYETEYDYWGQGTQVTVSS | high polyreactivity
QVQLVESGGGLVQAGGSLRLSCAASGFIFGTNTMGWYRQEPGKERELVAAITSVGSTNYADSVKGRFTISRDNAKNTVYLLMNSLKPEDTAVYYCPATLYYQYGGDYWGQGTQVTVSS | low polyreactivity
QVQLVESGGGLVQAGGSLRLSCAASGITFGYYAMGRYRQAPGKERELVAAISNSGRTYYADSVKGRFTISRDNAKNTVYLQMNSLKPEDTAVYYCAVRISGNWYDYWGQGTQVTVSS | low polyreactivity
QVQLVESGGGLVQAGGSLRLTCAASGNIYLYYAMGWYRQAPGKERELVADIDSSGASTYYADSVKGRFTSSRDNAKNTVYLQMNSLKAEDTAVYYCAAEFHWWYAGYDYGYWGQGTQVTVSS | low polyreactivity
QVQLVESGGGLVQAGGSLRLSCAASGRTFYNYAMGGYRQAPGKERELVAAISWSDGTTYYADSVKGRFTISRDNAKNTVYLQMNSLKPEDTAVYYCAAEFESSFALGFYYWGQGTQVTVSS | high polyreactivity

Source: the nanobody polyreactivity screen of Harvey et al. (2022)
